# Laboratory results as given in PMC9482650, “Quantitative fragmentomics allow affinity mapping of interactomes” (Nature Communications, 2022).
# T1: TJP3_3, O95049
# T1 sequence (O95049 375-456, limits assumed, looked up): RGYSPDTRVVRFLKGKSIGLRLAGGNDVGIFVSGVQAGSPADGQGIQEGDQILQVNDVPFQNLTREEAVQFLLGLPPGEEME
# T2: SYNJ2BP, P57105
# T2 sequence (P57105 8-110, limits assumed, looked up): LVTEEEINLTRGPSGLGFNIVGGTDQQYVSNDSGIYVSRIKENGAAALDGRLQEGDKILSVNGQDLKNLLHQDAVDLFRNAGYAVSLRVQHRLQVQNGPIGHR
# T3: LIN7A, O14910
# T3 sequence (O14910 103-200, limits assumed, looked up): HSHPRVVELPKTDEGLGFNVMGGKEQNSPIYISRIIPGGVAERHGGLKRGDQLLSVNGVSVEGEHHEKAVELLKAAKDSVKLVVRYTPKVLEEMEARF
# T4: SNTG1, Q9NSN8
# T4 sequence (Q9NSN8 52-150, limits assumed, looked up): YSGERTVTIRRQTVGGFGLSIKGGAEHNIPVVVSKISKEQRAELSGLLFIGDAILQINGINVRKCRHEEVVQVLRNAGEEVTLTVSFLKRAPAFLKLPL
# T5: DFNB31_3, Q9P202
# T5 sequence (Q9P202 811-907, limits assumed, looked up): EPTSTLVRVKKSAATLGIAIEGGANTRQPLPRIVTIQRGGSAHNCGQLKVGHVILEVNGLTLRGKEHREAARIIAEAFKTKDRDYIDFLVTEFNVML
# T6: TX1BP3, O14907
# T6 sequence (O14907 10-122, limits assumed, looked up): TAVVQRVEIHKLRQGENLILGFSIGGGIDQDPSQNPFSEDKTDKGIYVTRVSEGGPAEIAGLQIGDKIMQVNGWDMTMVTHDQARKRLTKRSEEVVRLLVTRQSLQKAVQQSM
# T7: APBA3_1, O96018
# T7 sequence (O96018 389-490, limits assumed, looked up): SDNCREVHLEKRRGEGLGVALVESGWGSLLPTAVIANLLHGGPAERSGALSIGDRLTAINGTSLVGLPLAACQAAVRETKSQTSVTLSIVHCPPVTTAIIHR
# T8: RADIL, Q96JH8
# T8 sequence (Q96JH8 971-1071, limits assumed, looked up): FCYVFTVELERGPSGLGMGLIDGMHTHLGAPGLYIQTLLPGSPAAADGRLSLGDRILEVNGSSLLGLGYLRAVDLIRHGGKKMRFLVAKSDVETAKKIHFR
# T9: DLG3_2, Q92796
# T9 sequence (Q92796 221-321, limits assumed, looked up): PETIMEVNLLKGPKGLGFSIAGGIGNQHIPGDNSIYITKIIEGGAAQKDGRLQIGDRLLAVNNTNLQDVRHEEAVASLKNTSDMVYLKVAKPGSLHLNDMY
# T10: NHERF3_1, Q5T2W1
# T10 sequence (Q5T2W1 4-100, limits assumed, looked up): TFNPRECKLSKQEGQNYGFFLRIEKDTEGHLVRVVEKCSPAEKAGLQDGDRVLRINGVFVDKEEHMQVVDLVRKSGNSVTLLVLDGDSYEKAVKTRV
# T11: PARD3B_1, Q8TEW8
# T11 sequence (Q8TEW8 196-299, limits assumed, looked up): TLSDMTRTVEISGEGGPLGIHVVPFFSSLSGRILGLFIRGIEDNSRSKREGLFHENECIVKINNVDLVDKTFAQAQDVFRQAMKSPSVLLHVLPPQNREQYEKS
# Columns and labels:
# Assay in all cases: holdup assay
# Set-up in all cases: key: below the threshold = too weak to quantify, mostly under pKd 3.1 to 4
# Details in all cases: plain residues with an end cap or a label only (N-terminal biotin on a linker: ado-ado)
# [1] = molecular target: T1, TJP3_3, O95049
# [2] = molecular target: FRMPD2_1, Q68DX3
# [3] = molecular target: T2, SYNJ2BP, P57105
# [4] = molecular target: IL16_3, Q14005
# [5] = molecular target: MAGI2_6, Q86UL8
# [6] = molecular target: MAGI2_3, Q86UL8
# [7] = molecular target: FRMPD3, Q5JV73
# [8] = molecular target: T3, LIN7A, O14910
# [9] = molecular target: DLG2_2, Q15700
# [10] = molecular target: NOS1, P29475
# [11] = molecular target: GRIP2_5, Q9C0E4
# [12] = molecular target: GORASP2, Q9H8Y8
# [13] = molecular target: CASK, O14936
# [14] = molecular target: T4, SNTG1, Q9NSN8
# [15] = molecular target: T5, DFNB31_3, Q9P202
# [16] = molecular target: Inadl_9, Q8NI35
# [17] = molecular target: DLG5_1, Q8TDM6
# [18] = molecular target: MAGI1_1, Q96QZ7
# [19] = molecular target: T6, TX1BP3, O14907
# [20] = molecular target: IL16_4, Q14005
# [21] = molecular target: T7, APBA3_1, O96018
# [22] = molecular target: FRMPD4, Q14CM0
# [23] = molecular target: T8, RADIL, Q96JH8
# [24] = molecular target: T9, DLG3_2, Q92796
# [25] = molecular target: DLG2_3, Q15700
# [26] = molecular target: T10, NHERF3_1, Q5T2W1
# [27] = molecular target: T11, PARD3B_1, Q8TEW8
# CASK, O14936, sequence (O14936 487-570): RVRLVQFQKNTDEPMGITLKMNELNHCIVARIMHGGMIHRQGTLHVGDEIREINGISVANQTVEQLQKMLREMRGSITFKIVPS
# IL16_4, Q14005, sequence (Q14005 1229-1329): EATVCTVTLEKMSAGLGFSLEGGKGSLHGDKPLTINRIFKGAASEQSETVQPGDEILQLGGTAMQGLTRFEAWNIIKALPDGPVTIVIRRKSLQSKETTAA
# MAGI1_1, Q96QZ7, sequence (Q96QZ7 1-106): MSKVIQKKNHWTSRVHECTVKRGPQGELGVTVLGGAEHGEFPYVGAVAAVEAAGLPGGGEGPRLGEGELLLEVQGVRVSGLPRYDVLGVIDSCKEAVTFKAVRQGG
# DLG5_1, Q8TDM6, sequence (Q8TDM6 617-713): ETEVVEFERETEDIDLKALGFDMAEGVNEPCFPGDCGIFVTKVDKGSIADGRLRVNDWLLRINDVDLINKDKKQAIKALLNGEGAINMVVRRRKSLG
# IL16_3, Q14005, sequence (Q14005 1107-1207): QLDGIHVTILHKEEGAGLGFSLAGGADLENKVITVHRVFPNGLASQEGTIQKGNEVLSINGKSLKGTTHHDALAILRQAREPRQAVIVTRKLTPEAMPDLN
# MAGI2_6, Q86UL8, sequence (Q86UL8 1141-1229): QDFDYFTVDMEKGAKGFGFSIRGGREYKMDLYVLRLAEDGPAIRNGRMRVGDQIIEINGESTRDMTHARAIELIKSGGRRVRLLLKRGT
# GRIP2_5, Q9C0E4, sequence (Q9C0E4 544-642): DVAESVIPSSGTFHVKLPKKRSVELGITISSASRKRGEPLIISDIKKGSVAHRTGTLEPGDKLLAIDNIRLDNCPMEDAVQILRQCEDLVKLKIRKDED
# NOS1, P29475, sequence (P29475 9-101): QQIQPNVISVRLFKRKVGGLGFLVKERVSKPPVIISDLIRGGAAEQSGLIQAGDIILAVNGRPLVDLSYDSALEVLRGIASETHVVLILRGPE
# Inadl_9, Q8NI35, sequence (Q8NI35 1530-1615): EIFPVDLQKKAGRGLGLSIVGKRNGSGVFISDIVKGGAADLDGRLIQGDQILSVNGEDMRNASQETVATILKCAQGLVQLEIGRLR
# FRMPD3, Q5JV73, sequence (Q5JV73 12-100): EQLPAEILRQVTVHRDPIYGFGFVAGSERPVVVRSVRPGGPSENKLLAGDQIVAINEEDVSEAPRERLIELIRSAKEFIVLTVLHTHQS
# FRMPD4, Q14CM0, sequence (Q14CM0 67-160): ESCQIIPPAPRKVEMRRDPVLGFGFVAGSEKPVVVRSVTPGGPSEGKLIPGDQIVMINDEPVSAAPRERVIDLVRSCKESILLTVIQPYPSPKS
# MAGI2_3, Q86UL8, sequence (Q86UL8 600-682): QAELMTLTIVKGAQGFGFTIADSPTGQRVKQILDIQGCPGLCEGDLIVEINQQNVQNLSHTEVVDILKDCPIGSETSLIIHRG
# FRMPD2_1, Q68DX3, sequence (Q68DX3 770-861): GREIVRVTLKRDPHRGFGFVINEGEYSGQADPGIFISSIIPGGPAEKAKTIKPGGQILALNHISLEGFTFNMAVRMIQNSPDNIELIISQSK
Binder,pKd [1],pKd [2],pKd [3],pKd [4],pKd [5],pKd [6],pKd [7],pKd [8],pKd [9],pKd [10],pKd [11],pKd [12],pKd [13],pKd [14],pKd [15],pKd [16],pKd [17],pKd [18],pKd [19],pKd [20],further results
"PAPGQHTTQI [STK16, O75716]",below the threshold,below the threshold,3.51,below the threshold,below the threshold,below the threshold,below the threshold,below the threshold,3.79,3.69,below the threshold,3.54,below the threshold,below the threshold,4.23,below the threshold,below the threshold,below the threshold,4.12,below the threshold,pKd [21]: below the threshold; pKd [22]: below the threshold; pKd [23]: 3.75; pKd [24]: 4.11; pKd [25]: 3.67; pKd [26]: 4.26; pKd [27]: 3.69
"RELVMRVTTV [MARCHF4, Q9P2E8]",below the threshold,3.48,4.82,below the threshold,4.55,4.56,below the threshold,3.7,5.2,3.71,below the threshold,5.54,below the threshold,4.95,4.33,3.82,below the threshold,below the threshold,4.75,below the threshold,pKd [21]: below the threshold; pKd [22]: below the threshold; pKd [23]: 4.74; pKd [24]: 5.22; pKd [25]: 4.93; pKd [26]: below the threshold; pKd [27]: below the threshold
"PASAKGPLGV [CLDN19, Q8N6F1]",below the threshold,below the threshold,below the threshold,below the threshold,below the threshold,below the threshold,below the threshold,below the threshold,below the threshold,below the threshold,below the threshold,below the threshold,below the threshold,below the threshold,below the threshold,below the threshold,below the threshold,below the threshold,below the threshold,3.55,pKd [21]: below the threshold; pKd [22]: below the threshold; pKd [23]: below the threshold; pKd [24]: below the threshold; pKd [25]: below the threshold; pKd [26]: below the threshold; pKd [27]: below the threshold
"DSATVRTYSC [PPFIA1, Q13136]",below the threshold,4.49,below the threshold,below the threshold,below the threshold,below the threshold,below the threshold,below the threshold,below the threshold,below the threshold,below the threshold,3.62,below the threshold,below the threshold,3.51,below the threshold,below the threshold,below the threshold,below the threshold,3.54,pKd [21]: below the threshold; pKd [22]: 3.8; pKd [23]: below the threshold; pKd [24]: 4.08; pKd [25]: 3.73; pKd [26]: 3.77; pKd [27]: 3.57
"QFTLRHWLKV [SLC6A3, Q01959]",below the threshold,3.71,below the threshold,below the threshold,below the threshold,below the threshold,below the threshold,below the threshold,below the threshold,below the threshold,below the threshold,4.56,below the threshold,below the threshold,below the threshold,below the threshold,below the threshold,below the threshold,below the threshold,below the threshold,pKd [21]: below the threshold; pKd [22]: below the threshold; pKd [23]: 4.42; pKd [24]: below the threshold; pKd [25]: below the threshold; pKd [26]: 3.77; pKd [27]: 3.87
